Experiment: soluble on expression in E. coli; label from the status in PepcDB or PDB records

Soluble on expression in E. coli, not soluble:
MGSDKIHHHHHHMFQWKKLGKVFTPQDINNRPWLKEFAQAPATLVFDDFVRVYFSCRPPVDEHGMYVSYSAWVDLDRNNLFNVLRVSEKPILPLGQSGEFDEFGTYPVSVVRDENIFRAYYAGWTRCESVPFNVAIGMAISDDGDVFRKAGPGPIISYSPEEPFVMSGPKIRRFNGEWQLFYIAGRRWKLVDGRAEPVYKIRMAVSSDGTNWRKINKDLISSRIEEDEAQASPDVFYANGRYHMFFCYRYSEHYRGKKHGYRIGYAWSSDLIDWHRDDEKVGIDVSETGWDSEMISYPHVFELDGKVYMAYLGDQVGRYGFGLAQLEGELR
MGSDKIHHHHHHMFREDRKGLIVVEVENQDLIKTIQVKFPRLSKGQKLIAEYILKHYDKAAFLTAAKLGSSVGVSESTVVRFANELGFSGYPKLQKALQELIKNKLTTVQRIELSNDFIDQESTLKSVLKSDMENIRYTLEKINHKTFDDVVDSIFSAKRIYILGLRSSTPIAEFLGFYLNLILDNAKIISYGVSDIFEQMMNVAKGDLVIGIGFPRYAARTIEALDYAQNNEATVVAITDSLLSPLAARANHTLIAQSNMASFVDSLVAPLSVVNALIIAVGLREKDKISSTFSKLEHIWQEYEVYSYKERRRD
MGSDKIHHHHHHMFSLEQLEAFMETVESGSFSNAARQLKKAQSVVSQHVMNLEIDCGVELFDRSGRYPVLTAEGSKLLPYARATILQHRRLKHTALSLFSRQSSEVCLAMDEGIPIQRISEIIQLLESDFPNIELEFLSASSIDIIDMVHSGRASTGLIFSELSMPSSIDFESIGVIEFDLYVASSHPLAKSVAPNMDSLRLYRQLCIRSRNTKTSSFQQVFSPDVWYADNYYVLLELALQGHGWCLLPEHMASSSVSSGNLTRVPIEFEQIGWYANVDVIQHQDKSSLPLLKRLRQLFRELLVGQK
MGSDKIHHHHHHMFSPTKLKEKRESQGLSQSQLASSLGISRVSYFNWESGKTKPNQNNLSKLSQILTVDPCYFESEYEIVETYLKLTEKNQKATLHYATELLNKQNEKVVDIPERFAYKVYEKLSAGTGTAYFDDGNYDTVYFNHQFDYDFASWVFGNSMEPTYENGSVALIKQTGFDYDGAIYAIDWDGQTYIKKVYREENGLRLVSLNRNYSDKFAPYDENPRIIGKIVGNFMPLED
MGSDKIHHHHHHMGAARRLPSALFLLGCRTRTRGEHAHMGKIRTGIGGWTFEPWRGTFYPDDLKQKDELKYAASKLTSIEINGTYYSTFKPNSWMKWRDETPDDFVFSVKASRFCTNRRVLSENNDSLEKFLSQGLEELGPKLGPINWQFMATKKFDPADFEGFLKLLPSEQKGVRLRHAMEVRSPTFACQQFYDLCAQYGVAIVYAVDDEAPEWPRIDQPTADFTYARLMCSREDEPTGMTSEELDGVVAQTHKWAERGDVFAYFIAGAKVRNPAAAMALIGKLGG
MGSDKIHHHHHHMGDNLILSFRPDLQIKEEAGKIYLQSPVRSLVCQRVSRGLRQLMKTLTTGSGSEDFLSEPVFKEDGAGEVAKFYYHLQQFIERGFISYNVMMEQEILAIYTPFSAAPLYNEKLFKQKQRYRLSRFTYSRRDGQEIILESPLANGRVVLTHWLAAAVLHLLAEACTAGEISMQFPALPKKSLQLFLELLLSAGMLEEVDDAGISAGEGDEVLQQWEFHDLLFHARSRLGPHEQPVGGTYRFWGRIAPLPAVKNPMSGERIKLYRPDMEKLREDDYPFSLVLEERKSIRDYADEPISVQQLGEFLYRSARIKELIKANPPAGLLYEASYRPYPGGGAAYELEIYLAVNECEGLPGGLYHYDPWQHELEKLTTRTSEVEGLLKYCSNAAGLKELPPVSLHITARFQRVAWKYQSLTYSVILKDVGALCQTLYLVATAMDLAPTAIGSGPAKLLCRIAGLNYLQESAVGEFILGNKRI
MGSDKIHHHHHHMGFYEEMIRRIAADADPAACVEEIRIYANWVLVKTGKWSISTYFHGMPGFTDPAGMGTWMGDWIGRPARAAALELLVSREILKRSVGMACLKSLLPDPPATIAGGAIELVEPAACRIPTCFIGYFKTAAAWREKGYPVTIVELFPRPGDIHWNEADEVLEKAELVLMTGLTVVNETLEAVIRRTPSARMRIIMGPTVPASPVLFDYGIDMLGITQIDDVELMSNYALLGGGSIANAPAGALRSLNMARDLRALQERISALAR
MGSDKIHHHHHHMGGIYRLSLKSTEATAERLSCDTRCNYEDRDLAYSPDGRWLAIARRFSNISEDIFIRDLASAHEKRLTQGLEDIRGLSWTPDSQALVFATEDSGSSNGFTLDINTAQIRSLDVEGMSYPSSVSAEGELVYHQYHRQFQMAYFSLGDKVPGSLFPLLYSGVSHRNPDYSPEAKRIVFVSSETGYNEIWTSDINGQKLEQLTQLKSRVAYPRWSPDGSRIAFIAPDDRNEGNRIFILDLTNKNITALASSYHNHGRPSWNWQGTAVLASTADGITEFYLDNRAPRVISSLSMAVGFAKSATELVFSRDGENGLWQINLTQPEHVEQLISTDAFRAGNNWVLTASGVYFKSSNGHEQLLNYWEASSQQVTSLLRVPRSSLSGFGSMTYIPEANRLVMTLDGFPQRDIILLKHKLLK
MGSDKIHHHHHHMGHSLNAKYGLKRVINASGRMSILGVSAPTDTVMDAMKHGGQNYVEIADLVDKAGDHIARILDSEAAVVVNSASSGIALSIAAIVTEGNRRKSERLHQEVIAKNEVIMLKGHNVQYGAPVETMIYLGGGKLVEVGYANEGKAEHIEDAIGENTAAILYVKSHHAVQKNMISVEEAWEVAQRNNIPLIVDAAAEEDIQKYVKYADLAIYSGSKAIEGPTSGIVGGKRKYIEWLKVQLHCIGRSMKVGKETTFGLLQALDEYGVKEDKSEQEKELLQVLMPLKELNGVNVTIVQDEAGRAIFRARIHIDENELNKSAKDVVTALREGEIAIYTRDYGVRQGFFDIDPRPLLGDDIHVIEEKLREIVGGN
MGSDKIHHHHHHMGKHTKFGSSDDEGETETSVAKRQKDEKKEKKKEKRDRSRSPHKERERSPKRDRHPEKNESRRHDDRDQERRRDYGRNDRRDDRRGDGSWKTDRNDRNDRRNDFQRRDDKNRLSAEEIAAQRKALWGNKKVAGESSSSNTTDTASSSSEPATGGKNEKLWSSAIAATGVDSSKANKFMRLMGVKNAPKPTDDSSRLSDEKNRQDKMLNDLEKQYAIARETTHMGRGTGFGFGH
MGSDKIHHHHHHMGKLLTPDDLPIVRGRVYHLDLAPEELARRVIVVGDPDRVPVLAEELLALREVDRFHRGFRTITGVTAETGQRVSFVTSGIGAPSTEIVLNELAALNEVDFASMTRRERWQPLTLVRLGTSGGLNPVTPVGTLILTDYVVGLDNTALYYDIPLPDEACALLEEKVGSVLTGTELPGARFAGKIAPYAARSDRGLLASLTAAASTLELNWTRGLTISSAGFFAEQGRGVARVGTTQVNLLDAFERLASPWPGLELQNMEMEAGFFLHFLGGMRYRAAVVCVVINQRSSGVFMADYRRQVLDGARLILRAFKEYGDARAKSGALA
MGSDKIHHHHHHMGKPVSSPYYIGCSGWHYAHWVGAFYPPGLPSTGRLAFYAGRFHTVEINSSFYRLPSEKCLRAWHDGTPAGFLFALKASRFITHMKKLKDSEASLARLLGRAENLGEKLGPVLFQLPPHWRRNAKRLEGFLRVLPSGHRYAFEIRDPSWHHPEIYALLNAYNAAFCIFDIAGFQSPIQLTTDFAYIRLHGPSFAAYAGRYTTEALRAWAARIRTWGLRTVYVYFDNDQAAYATHNALELMGILGL
MGSDKIHHHHHHMGLAKTRSAAISGVTGVIVDVEANIGAGLPGTYIVGLADAAVAEARQRIKTAVNNSELPWPKTKVIVNLSPASLRKNGAQFDLGICMAIMAASGMHNPDCRDIENTLFLGEIGLDGAIKPISGLVPALLAARGAEIRNVVIPWGNAAEAMAVIDDSAMNVLVARSISEATEWLKGKDDLIAAHDVILDEHATKKQPHKVGDMQDVVGQSDAKKAAEIAVAGGHNIVMIGPPGSGKSMIAQRMAGLLPALTHTEMIEATAIHSVMGQAFNGPMTHPPFVAPHHSITKAALLGGGSGNLQPGAASLAHTGVLFLDEVSEIPANILDCLRMPLECGEIKLMRHRREVTFPARFQLVMATNPCRCAAELPSECRCSATTRARYLSNISGPLRDRLDIFVRTHAQGAVISDANQESSKSIAERVQSARERSEHRWRTAGFTVTTNAAMDPYHLRRHFPADEASMALLSSYLGDGELSQRGVDRALKVAWTLCDLEGKTRPDLGHTAYALELRDDCIRENAA
MGSDKIHHHHHHMGNILWVASYPKSGNTWVRAFLENYIQNAEQGVDINTMHKISTAESAAHRFQARLQDGRKTTDLSLDEICALRPAVQADIAMQAHGTTFVKTHNYLGTYKEYPLHNSSVTSGSIYIVRNPLDVTVSMANYFGYSIDETIAYMAEEMTGTPNEPENVPQVITSWSMHVSSWTQNPEEAKLVLRYEDILDDPKKVFRKIESFLGLKKDPNRLKNAIKHSSFAQLKAQESKRGFVEKHENAKSFFRQGSKNQWRQVLSDEQVAKIVEHHGEQMARFKYLPGKLR
MGSDKIHHHHHHMGQIRVSGLGKAYKQYPNRWSRLFEWLVPFSPPRHHLHWILREVEFTIEPGEAVGIVGVNGAGKSTLLKMIAGTTQPTCGEIRVAGRVAALLELGMGFHPDFTGRQNVFMAGQLLGMQVEEIQALMPDIEAFAEIGEAIEQPVRTYSSGMQMRLAFSVATARRPDILIVDEALSVGDAYFQHKSFERIRSFRKAGTTLLIVSHDRSAIQSICDSAILLEQGRMAMRGRPEEVMDYYNALLAEREGQTVRQEMLADGQVRTISGTGEAAILDVRMVDQRQRALEVVEVGQAVTLEVEVEVRQDIERLILGFMIKDRLGQPMYGINTHRLDKALTDLKAGERITYRFAFDMRLGKGHYSVALSLSRLDSHLDRNFEWRDYGLVFHVINNRQEDFVGCSWLGAETHISRSGEAALDPTSAESTP
MGSDKIHHHHHHMGQVSGCFATSYAEARQKFLAAARGAGATLAEFPHPTRRGSAGEDLAMDVAWVGPADARRVLIISSGVHGVEGFCGSGAQVALLSDSILLADCAEARLGLLVVHAVNPYGFSHLRRVNEDNVDLNRNFMDFAQPLPDNAPYAEIAPMLLPTHWPPSGEEQAQFMKAVAEKGMDWYQTAVSSGQYQDPKGLFYGGNKETWSNYTLRRVLARFGSARGSLRWIDIHTGLGPWGYGEPICMGPDDDGQLKRTRAIWGGEVTSIYDGSSSSARLTGLAWEAVPGTLPDVDYAGIALEFGTLPVAEVLDALRGDHWLYLHPEADENQRTLVRQAMWRAFYGDAYDWRAGVVEQVTEAVRKAMRAR
MGSDKIHHHHHHMGSSRKVIITCAVTGAIHTPSMSPYLPVTPDEVAQASIGAAEAGAAVIHLHARDPRDGRPTQDPAAFAEFLPRIKSNTDAVINLTTGGSPHMTVEERLRPATHYMPELASLNMGSMNFGLYPMLERFKEFAHGWEREHLERSRDLVFKNTFADIEFILKTCGGNGTRFEFECYDTSHLYNLAHFVDRKLATPPFFVQTVFGLLGGIGPHPEDLAHMRRTADRLFGADYVWSILGAGRHQIPLASIGAAQGANVRVGLEDSLWIAPGELAETNAAQVRKIRQVIEGLSLEVASPAEARTMLGLKGPQNVNF
MGSDKIHHHHHHMGYRLTRENLNTLFHKLKEDYLIYAPKRLIGKGAFSDTDRVRYDKINNVEEIEFDVKSDFSFKEILLPISETLFFFTEDSVKEAEGPKKGAIIFLRSCDINAVKRLDQIYLKNGFEDHYYKRIREKVKFVLMPCKTSFENCFCVSMGTNQADMYDASVELREEHFYIDNKEEKWKEFLKEVSLEELEVKPSFVMENKTKVKVPEGITTKIFKSKMWDEYDSRCINCGRCNFVCPTCTCFSMQDIFYTDNGKAGERRRVWASCMVDGFTNVAGGGSYRSKNGQRMRFKVMHKVYDYKKRNGYHMCVGCGRCDDICPEYISFSNCINKLKGAIKEVEDNE
